The text below walks through data of US20240100134.

Series [1] deals with recombinant plasminogen-linker-Fc fusion (human plasminogen, QA linker GQAGQAS, Fc).
Series [2] concerns the target T1, recombinant human plasminogen (not fused to Fc, wild-type).
T1 chain: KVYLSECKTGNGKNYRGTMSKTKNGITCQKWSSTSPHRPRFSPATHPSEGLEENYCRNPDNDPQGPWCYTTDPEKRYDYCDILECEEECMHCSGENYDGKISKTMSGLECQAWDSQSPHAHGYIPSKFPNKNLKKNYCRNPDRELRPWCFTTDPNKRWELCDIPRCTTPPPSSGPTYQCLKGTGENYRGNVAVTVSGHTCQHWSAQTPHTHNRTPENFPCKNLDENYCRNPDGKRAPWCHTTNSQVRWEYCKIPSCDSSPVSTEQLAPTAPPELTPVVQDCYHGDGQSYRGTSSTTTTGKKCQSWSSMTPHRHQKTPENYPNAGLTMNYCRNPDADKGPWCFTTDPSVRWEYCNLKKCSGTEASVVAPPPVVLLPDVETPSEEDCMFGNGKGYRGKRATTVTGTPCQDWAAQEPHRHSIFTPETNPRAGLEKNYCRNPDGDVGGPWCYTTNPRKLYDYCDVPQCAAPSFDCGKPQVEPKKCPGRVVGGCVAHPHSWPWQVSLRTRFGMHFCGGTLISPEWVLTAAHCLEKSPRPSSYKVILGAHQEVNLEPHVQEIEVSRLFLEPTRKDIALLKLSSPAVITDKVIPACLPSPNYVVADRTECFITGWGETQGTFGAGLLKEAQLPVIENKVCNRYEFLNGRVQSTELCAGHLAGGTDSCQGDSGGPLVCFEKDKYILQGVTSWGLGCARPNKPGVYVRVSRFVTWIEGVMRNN

B1: tissue-type plasminogen activator (protein)
chain: SYQVICRDEKTQMIYQQHQSWLRPVLRSNRVEYCWCNSGRAQCHSVPVKSCSEPRCFNGGTCQQALYFSDFVCQCPEGFAGKCCEIDTRATCYEDQGISYRGTWSTAESGAECTNWNSSALAQKPYSGRRPDAIRLGLGNHNYCRNPDRDSKPWCYVFKAGKYSSEFCSTPACSEGNSDCYFGNGSAYRGTHSLTESGASCLPWNSMILIGKVYTAQNPSAQALGLGKHNYCRNPDGDAKPWCHVLKNRRLTWEYCDVPSCSTCGLRQYSQPQFRIKGGLFADIASHPWQAAIFAKHRRSPGERFLCGGILISSCWILSAAHCFQERFPPHHLTVILGRTYRVVPGEEEQKFEVEKYIVHKEFDDDTYDNDIALLQLKSDSSRCAQESSVVRTVCLPPADLQLPDWTECELSGYGKHEALSPFYSERLKEAHVRLYPSSRCTSQHLLNRTVTDNMLCAGDTRSGGPQANLHDACQGDSGGPLVCLNDGRMTLVGIISWGLGCGQKDVPGVYTKVTNYLDWIRDNMRP
For the protein B1, in series [1], the “Michelis-Menten analysis of activation (KM and Vmax), 10 mM EACA” value was “the kinetics of rPlg and rPlg-Fc activation are similar (as indicated by the KM and Vmax)”; the “activation measured by the hydrolysis of plasmin fluorogenic substrate H-Ala-Phe-Lys-AMC” value was “In the presence of tPA or uPA, comparable hydrolytic activity for rPlg and rPlg-Fc is observed”. In series [2], the “Michelis-Menten analysis of activation (KM and Vmax), 10 mM EACA” value is “the kinetics of rPlg and rPlg-Fc activation are similar (as indicated by the KM and Vmax)”; the “activation measured by the hydrolysis of plasmin fluorogenic substrate H-Ala-Phe-Lys-AMC” value is “In the presence of tPA or uPA, comparable hydrolytic activity for rPlg and rPlg-Fc is observed”.
